Experimental data reported in patent US20250235545A1, “POLYPEPTIDE CONJUGATE AND USE THEREOF” (SHANGHAI CHIXI BIOMEDICAL TECHNOLOGY CO., LTD, priority 2024, published 2025).
In brackets after ≈: the same amount, converted by molar mass. Read-outs that look alike come from different tables or passages of the source. Where a SMILES comes first, the peptide text is derived from it. The star is where a group is joined. X8 = CC[C@@]1(O)C(=O)OCc2c1cc1n(c2=O)Cc2c-1nc1ccccc1c2CCN(C1CCCC1)*; X1 = CC[C@@]1(O)C(=O)OCc2c1cc1n(c2=O)Cc2c-1nc1ccccc1c2CCN(C1CCC1)*; X7 = CC[C@@]1(O)C(=O)OCc2c1cc1n(c2=O)Cc2c-1nc1ccccc1c2CCN(C)*; Propanoyl(3-maleimido) = O=C1C=CC(=O)N1CCC(=O)*; PEG6 = NCCOCCOCCOCCOCCOCCOCCC(=O)O

Assays:
[1] = Homogenate activation efficiency, heart tissue (Examples 28, 37); type: in vitro ADME; settings: pH 5.0, 37° C., 2 h
[2] = test system: sarcoma SJSA-1 tumor model; experiment: Efficacy in animal model of sarcoma SJSA-1, 30 mg/kg once a week for two weeks (Example 40); type: in vivo, BALB/c mice; settings: 30 mg/kg once a week for two weeks; Day 14
Procedure: Test objective: To further compare the antitumor efficacy of different polypeptide Linkers in an animal tumor model of sarcoma SJSA-1.
(§1) Test drug: Polypeptide conjugate and normal saline control group.
The control group was administered normal saline. Administration was performed once a week for two weeks.

[3] = test system: sarcoma SJSA-1 tumor model
Procedure, shortened: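 SJSA-1 cells (2×10^7, DMEM/10% FBS, under 15 passages) implanted subcutaneously in right chest of female BALB/c nude mice, 6-8 weeks old. At ≥100 mm^3, randomized three per group; dosing once weekly for three weeks, saline as control, day 1 = first treatment.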

[4] = test system: A549 (non-small cell lung cancer); experiment: cells; type: cell-based; settings: CCK8, 48 h; for IC50 Non-small cell lung cancer tissue (A549): Table 6
Procedure, shortened: (§2)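 Cells in RPMI1640 or high-glucose DMEM with 10% FBS, P/S and 1 mM sodium pyruvate were seeded at 5,000 cells/well into graded drug concentrations, with 0.1% DMSO controls, in triplicate. After 48 h at 37° C/5% CO2, CCK8 was added for about 2 h and absorbance read at 450 nm; survival and IC50 were calculated.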

[5] = test system: SKBR3 (breast cancer tissue); experiment: cells; type: cell-based; settings: CCK8, 48 h; for IC50 Breast cancer tissue (SKBR3): Table 6
Procedure, shortened: as §2

A2780 (ovarian cancer) = experiment: cells; type: cell-based; settings: CCK8, 48 h; for IC50 Ovarian cancer tissue (A2780): Table 6
Procedure, shortened: as §2

SJSA-1 (sarcoma tissue) = experiment: cells; type: cell-based; settings: CCK8, 48 h; for IC50 Sarcoma tissue (SJSA-1): Table 6
Procedure, shortened: as §2

[6] = Tumor homogenate activation efficiency, ovarian cancer tissue (Examples 28, 37); type: in vitro ADME; settings: pH 5.0, 37° C., 2 h
Procedure, shortened: (§3)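 Each conjugate, dissolved at 1 mg/ml in acidic MES saline (pH 5.0), was exposed to 100 μg homogenate for 2 h at 37° C; released Belotecan was quantified by HPLC peak areas.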

[7] = Tumor homogenate activation efficiency, small cell lung cancer tissue (Example 28); type: in vitro ADME; settings: pH 5.0, 37° C., 2 h; Table 5
Procedure, shortened: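 Polypeptide conjugate at 1 mg/ml in 50 mM MES, 250 mM NaCl, pH 5.0 incubated with 100 μg small cell lung cancer tissue homogenate at 37° C. for 2 h. HPLC quantified Belotecan release as Belotecan peak area over total area of Belotecan plus all Belotecan-containing compounds.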

[8] = Tumor homogenate activation efficiency, breast cancer tissue (Examples 28, 37); type: in vitro ADME; settings: pH 5.0, 37° C., 2 h
Procedure, shortened: as §3

[9] = Tumor homogenate activation efficiency, non-small cell lung cancer tissue (Examples 28, 37); type: in vitro ADME; settings: pH 5.0, 37° C., 2 h
Procedure, shortened: as §3

[10] = test system: A2780 ovarian cancer tumor model; experiment: Efficacy in animal model of A2780 ovarian cancer, 30 mg/kg once a week for two weeks (Example 41); type: in vivo, BALB/c mice; settings: Day 14
Procedure: Test objective: To further compare the antitumor efficacy of different polypeptide Linkers in an animal tumor model of A2780 ovarian cancer.
as §1
8×10^6 corresponding cells were injected into right axillas of nude mice subcutaneously. […] The negative control group was administered normal saline. Administration was performed once a week for two weeks.

[11] = test system: colo320 colorectal cancer tumor model
Procedure, shortened: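 Female BALB/c nude mice, 6–8 weeks old, received 7.5×10^6 colo320 cells subcutaneously in the right chest. Once tumors reached at least 120 mm^3 they were randomized three per group. Treatment with test agents or saline control was given once weekly for four weeks.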

[12] = MTD determination in mice (Examples 27, 36, 44); type: in vivo; settings: female, mouse, in vivo, mice, monitored for 14 d
Source text: Test animals: 6-8 weeks old mice, all female; mice were grouped randomly, with six mice in each group, administered with drugs at different concentration gradients separately and monitored for 14 d. A mouse was euthanized at a loss of 20% of its initial weight and deemed to have died of poisoning.

[13] = Tumor homogenate activation efficiency, sarcoma tissue (Examples 28, 37); type: in vitro ADME; settings: pH 5.0, 37° C., 2 h
Procedure, shortened: as §3

[14] = Tumor homogenate activation efficiency, colorectal cancer tissue (Example 37); type: in vitro ADME; settings: pH 5.0, 37° C., 2 h; Table 10
Procedure: Buffer preparation: 50 mM PH buffer (MES), 250 mM NaCl, pH adjusted to 5.0 with 0.5 M of sodium hydroxide.
The polypeptide conjugate was prepared into a 1 mg/ml solution with pH 5.0 buffer, 100 μg of tumor tissue homogenate was added, (the tumor tissue homogenate was the homogenate of tumor tissues prepared with a Jingxin F6/10 handheld homogenizer), and the solution was placed at 37° C. for 2 h. The tumor tissue homogenate could effectively activate the polypeptide conjugate and release Belotecan, and the activation efficiencies of the drugs in tumor tissues were compared by HPLC allowing determination of a decrease in the compounds and an increase in Belotecan:
Release percentage=peak area of Belotecan/total peak area of Belotecan and all other Belotecan-containing compounds

[15] = test system: colo320 (colorectal cancer tissue); experiment: cells; type: cell-based; settings: CCK8, 48 h; Table 6
Procedure, shortened: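 Colo320 cells, 5,000 per well, exposed to drug concentration series for 48 h at 37 °C, 5% CO2 (0.1% DMSO controls). Viability by CCK8, absorbance at 450 nm after about 2 h. Survival rates and IC50 calculated.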

[16] = Table 14 (Example 43), dose 45 mg/kg, once a week for four weeks, BALB/c mice
[17] = 45 mg/kg once a week for three weeks, Table 7
[18] = 45 mg/kg once a week for four weeks, Table 8
[19] = Table 13 (Example 42), dose 45 mg/kg, once a week for four weeks, BALB/c mice

SMILES: CC[C@@]1(O)C(=O)OCc2c1cc1n(c2=O)Cc2c-1nc1ccccc1c2CCN(C(=O)CNC(=O)[C@H](CC(N)=O)NC(=O)[C@H](C)NC(=O)[C@H](C)NC(=O)CCOCCOCCOCCOCCOCCOCCNC(=O)CCN1C(=O)C=CC1=O)C1CCC1 [MI-6PEG-AANG-D7] ({Propanoyl(3-maleimido)-PEG6}-AANG-X1)
- Percentage of release efficiency (%) Heart tissue ([1]; Table 5): 2%
- Mouse weight (%) on Day 14 [2]: +1.6%
- Mouse weight (%) ([3]; 15 mg/kg once a week for three weeks, Table 2): +31%
- Mouse weight (%) ([3]; 45 mg/kg once a week for three weeks, Table 2): +26%
- IC50 A549 (non-small cell lung cancer) ([4]; Table 1): 1.89 µg/mL (≈ 1.52 µM)
- IC50 SKBR3 (breast cancer tissue) ([5]; Table 1): 2.64 µg/mL (≈ 2.12 µM)
- IC50 A2780 (ovarian cancer) (A2780 (ovarian cancer); Table 1): 1.21 µg/mL (≈ 0.972 µM)
- IC50 SJSA-1 (sarcoma tissue) (SJSA-1 (sarcoma tissue); Table 1): 0.53 µg/mL (≈ 0.426 µM)
- Percentage of release efficiency (%) Ovarian cancer tissue (A2780) ([6]; Table 5): 84.5%
- Percentage of release efficiency (%) Small cell lung cancer tissue (NCI-H841) [7]: 66.1%
- Percentage of release efficiency (%) Breast cancer tissue (SKBR3) ([8]; Table 5): 78.8%
- Percentage of release efficiency (%) Non-small cell lung cancer tissue (A549) ([9]; Table 5): 77%
- Mouse weight (%) on Day 14 [10]: +15.6%
- Mouse weight (%) ([11]; 15 mg/kg once a week for four weeks, Table 3): +26%
- Mouse weight (%) ([11]; 45 mg/kg once a week for four weeks, Table 3): +31%
- Mouse weight (%) [11, 16]: +31%
- MTD at 14 d ([12]; Table 4): 250 mg/kg
- Percentage of release efficiency (%) Sarcoma tissue (SJSA1) ([13]; Table 5): 64.3%

SMILES: CC[C@@]1(O)C(=O)OCc2c1cc1n(c2=O)Cc2c-1nc1ccccc1c2CCN(C)C(=O)[C@H](CC(C)C)NC(=O)[C@H](CC(N)=O)NC(=O)[C@H](C)NC(=O)[C@H](C)NC(=O)CCOCCOCCOCCOCCOCCOCCNC(=O)CCN1C(=O)C=CC1=O [MI-6PEG-AANL-D1] ({Propanoyl(3-maleimido)-PEG6}-AANL-X7)
- Percentage of release efficiency (%) Heart tissue ([1]; Table 10): 3%
- Mouse weight (%) [3, 17]: +29%
- IC50 Non-small cell lung cancer tissue (A549) [4]: 3.05 µg/mL (≈ 2.42 µM)
- IC50 Breast cancer tissue (SKBR3) [5]: 3.25 µg/mL (≈ 2.58 µM)
- IC50 Ovarian cancer tissue (A2780) (A2780 (ovarian cancer)): 2.09 µg/mL (≈ 1.66 µM)
- IC50 Sarcoma tissue (SJSA-1) (SJSA-1 (sarcoma tissue)): 2.33 µg/mL (≈ 1.85 µM)
- Percentage of release efficiency (%) Ovarian cancer tissue (A2780) ([6]; Table 10): 66.4%
- Percentage of release efficiency (%) Breast cancer tissue (SKBR3) ([8]; Table 10): 80%
- Percentage of release efficiency (%) Non-small cell lung cancer tissue (A549) ([9]; Table 10): 69.5%
- Percentage of release efficiency (%) Colorectal cancer tissue (colo320) [14]: 72.4%
- Mouse weight (%) [11, 18]: +16%
- Mouse weight (%) [11, 16]: +16%
- IC50 Colorectal cancer tissue (colo320) [15]: 3.82 µg/mL (≈ 3.03 µM)
- MTD at 14 d ([12]; Table 9): 200 mg/kg
- Percentage of release efficiency (%) Sarcoma tissue (SJSA1) ([13]; Table 10): 81.2%

SMILES: CC[C@@]1(O)C(=O)OCc2c1cc1n(c2=O)Cc2c-1nc1ccccc1c2CCN(C(=O)[C@H](CC(C)C)NC(=O)[C@H](CC(N)=O)NC(=O)[C@H](C)NC(=O)[C@H](C)NC(=O)CCOCCOCCOCCOCCOCCOCCNC(=O)CCN1C(=O)C=CC1=O)C1CCCC1 [MI-6PEG-AANL-D8] ({Propanoyl(3-maleimido)-PEG6}-AANL-X8)
- Percentage of release efficiency (%) Heart tissue ([1]; Table 10): 2.2%
- Mouse weight (%) [3, 17]: +17%
- IC50 Non-small cell lung cancer tissue (A549) [4]: 2.27 µg/mL (≈ 1.73 µM)
- IC50 Breast cancer tissue (SKBR3) [5]: 1.98 µg/mL (≈ 1.51 µM)
- IC50 Ovarian cancer tissue (A2780) (A2780 (ovarian cancer)): 1.27 µg/mL (≈ 0.965 µM)
- IC50 Sarcoma tissue (SJSA-1) (SJSA-1 (sarcoma tissue)): 1.54 µg/mL (≈ 1.17 µM)
- Percentage of release efficiency (%) Ovarian cancer tissue (A2780) ([6]; Table 10): 71%
- Percentage of release efficiency (%) Breast cancer tissue (SKBR3) ([8]; Table 10): 70.2%
- Percentage of release efficiency (%) Non-small cell lung cancer tissue (A549) ([9]; Table 10): 68.4%
- Percentage of release efficiency (%) Colorectal cancer tissue (colo320) [14]: 78.9%
- Mouse weight (%) ([11]; 15 mg/kg once a week for four weeks, Table 8): +33%
- Mouse weight (%) [11, 18]: +15%
- IC50 Colorectal cancer tissue (colo320) [15]: 2.97 µg/mL (≈ 2.26 µM)
- MTD at 14 d ([12]; Table 9): 200 mg/kg
- Percentage of release efficiency (%) Sarcoma tissue (SJSA1) ([13]; Table 10): 81.1%

SMILES: CC[C@@]1(O)C(=O)OCc2c1cc1n(c2=O)Cc2c-1nc1ccccc1c2CCN(C)C(=O)[C@H](CC(C)C)NC(=O)[C@H](Cc1ccccc1)NC(=O)CNC(=O)CNC(=O)CCOCCOCCOCCOCCOCCOCCNC(=O)CCN1C(=O)C=CC1=O [MI-6PEG-GGFL-D1] ({Propanoyl(3-maleimido)-PEG6}-GGFL-X7)
- Percentage of release efficiency (%) Heart tissue ([1]; Table 10): 1.4%
- Mouse weight (%) [3, 17]: +11%
- SJSA-1 (sarcoma tissue) growth rate (%) [3, 17]: 1181.64%
- SJSA-1 (sarcoma tissue) mean tumor volume (mm^3) [3, 17]: 1485.2 mm^3
- Percentage of release efficiency (%) Ovarian cancer tissue (A2780) ([6]; Table 10): 80%
- Percentage of release efficiency (%) Breast cancer tissue (SKBR3) ([8]; Table 10): 69.5%
- Percentage of release efficiency (%) Non-small cell lung cancer tissue (A549) ([9]; Table 10): 82.5%
- Percentage of release efficiency (%) Colorectal cancer tissue (colo320) [14]: 86.7%
- Mouse weight (%) [11, 18]: +19%
- colo320 (colorectal cancer cell) growth rate (%) [11, 18]: 766.16%
- colo320 (colorectal cancer cell) mean tumor volume (mm^3) [11, 18]: 900.6 mm^3
- Mouse weight (%) [11, 19]: +19%
- colo320 (colorectal cancer cell) growth rate (%) [11, 19]: 766.16%
- colo320 (colorectal cancer cell) mean tumor volume (mm^3) [11, 19]: 900.6 mm^3
- Mouse weight (%) [11, 16]: +19%
- colo320 (colorectal cancer cell) growth rate (%) [11, 16]: 766.16%
- colo320 (colorectal cancer cell) mean tumor volume (mm^3) [11, 16]: 900.6 mm^3
- MTD at 14 d ([12]; Table 9): 120 mg/kg
- Percentage of release efficiency (%) Sarcoma tissue (SJSA1) ([13]; Table 10): 73.5%
